Test [1] concerns the target T1, CXCR4-mCherry.
T1 construct: Co-expressed with DR5-GFP on transfected HEK293T cells; also called exogenous CXCR4; CXCR4 fused with an mCherry tag at the C-terminal
In words: live-cell confocal colocalisation, HEK293T cells co-expressing CXCR4-mCherry and DR5-GFP. The method, then: (§1) HEK293T cells were seeded at a density of 5×10⁵ cells/well into a 4-well chamber 35 mm culture dish (purchased from In Vitro Scientific) and cultured at 37° C., 5% CO₂ until the cell density reached approximately 60-70% confluence. Then, plasmids pCDNA3.1-CXCR4-mCherry and pCDNA3.1-DR5-GFP were gently pipetted and mixed with Opti-MEM Medium (purchased from Invitrogen. Inc.) without antibiotics and serum in a sterile centrifuge tube, in an amount of 0.5 μg pCDNA3.1-CXCR4-mCherry and 0.5 μg pCDNA3.1-DR5-GFP per well. Lipo8000™ transfection reagent (purchased from Shanghai Bio-Tech Biotechnology Co., Ltd.) was added and gently pipetted and mixed again to obtain a plasmid solution for transfection (i.e., each 100 μl Opti-MEM Medium contained 0.5 μg of plasmids pCDNA3.1-CXCR4-mCherry and pCDNA3.1-DR5-GFP, and 1.6 μl Lipo8000). The evenly mixed plasmid solution was added dropwise to each well, gently mixed, and then cultured for 24-36 hours at 37° C., and 5% CO₂ to obtain HEK293T cells co-expressing CXCR4-mCherry and DR5-GFP.
(§2) 200 nM CN-P2S2-DN protein or its different truncated variants P2S2-CN, P2S2. P2S2-DN (all labeled with fluorescent dye Alexa 647) were added to the above cell culture medium. HEK293T cells treated in the same manner with blank solution under the same conditions were used as negative controls. […]

Test [2] has as its target T2, DR5-GFP.
T2 construct: Co-expressed with CXCR4-mCherry on transfected HEK293T cells; also called exogenous DR5; DR5 fused with a GFP tag at the C-terminal
The description is as above. The method, then:
as §1, §2

The target of test [3] is T1, CXCR4-mCherry. Briefly: time-lapse confocal imaging, HEK293T cells co-expressing CXCR4-mCherry and DR5-GFP, 200 nM.
T1 sequence (chain, as listed by the source limits assumed): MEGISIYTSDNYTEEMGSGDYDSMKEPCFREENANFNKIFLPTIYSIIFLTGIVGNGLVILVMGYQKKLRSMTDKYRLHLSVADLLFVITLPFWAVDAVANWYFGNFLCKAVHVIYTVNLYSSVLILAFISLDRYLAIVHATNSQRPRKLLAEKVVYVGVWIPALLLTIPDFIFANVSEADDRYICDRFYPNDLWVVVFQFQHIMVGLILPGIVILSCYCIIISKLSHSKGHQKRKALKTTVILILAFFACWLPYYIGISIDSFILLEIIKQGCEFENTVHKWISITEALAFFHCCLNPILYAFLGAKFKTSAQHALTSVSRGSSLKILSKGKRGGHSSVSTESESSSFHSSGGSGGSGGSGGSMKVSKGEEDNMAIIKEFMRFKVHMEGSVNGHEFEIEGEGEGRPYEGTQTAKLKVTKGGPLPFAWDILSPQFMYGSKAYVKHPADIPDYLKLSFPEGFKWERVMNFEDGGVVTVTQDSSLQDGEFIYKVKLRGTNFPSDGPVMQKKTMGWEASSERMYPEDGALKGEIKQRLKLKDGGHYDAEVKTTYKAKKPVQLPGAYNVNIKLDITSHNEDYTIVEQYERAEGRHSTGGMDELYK
The target of test [4] is T2, DR5-GFP. The test is described as above.
For test [5], the target named is T3, endogenous CXCR4 receptor on human tumor cells (human, UniProt P61073 1-352).
T3 construct: whole, on cells; also called CXC motif chemokine receptor 4
T3 sequence (P61073 whole entry): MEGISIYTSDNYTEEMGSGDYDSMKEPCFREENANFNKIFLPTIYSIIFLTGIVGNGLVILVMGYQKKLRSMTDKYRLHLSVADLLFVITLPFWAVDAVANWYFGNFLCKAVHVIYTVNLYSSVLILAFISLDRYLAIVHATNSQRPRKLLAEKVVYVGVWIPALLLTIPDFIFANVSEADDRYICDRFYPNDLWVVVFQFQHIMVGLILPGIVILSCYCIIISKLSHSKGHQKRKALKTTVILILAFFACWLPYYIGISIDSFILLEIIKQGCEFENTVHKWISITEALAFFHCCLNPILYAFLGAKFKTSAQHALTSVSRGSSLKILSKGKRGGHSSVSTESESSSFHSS
Briefly: FRAP and confocal imaging on SJSA-1 cells, 200 nM. As to the method:
Fluorescence recovery after photobleaching (FRAP) is an experiment commonly used to verify liquid-liquid phase separation, see, for example, Alberti, Simon et al., Journal of Molecular Biology 430(23): 4806-4820, 2018: McSwiggen, David T et al., Genes & Development 33(23-24): 1619-1634, 2019. Therefore, FRAP was performed on the same droplets as in Example 4 that contain 12.5 μM CN-P2S2-DN protein. After bleaching with 488 nm laser light at a laser intensity of 50% for 1 second, fluorescence images were taken under a NIKON A1R HD25 laser confocal microscope (purchased from Nikon, Inc.) with a 100× oil immersion objective lens. The images were analyzed and exported using NIS-Elements AR Analysis (Nikon, Inc.) and Image J (National Institutes of Health) software.
SJSA-1 cells were treated with 200 nM CN-P2S2-DN (labeled with Alexa 561) for 4 hrs in the same manner as in Example 5, and photobleaching analysis was performed.

The target in test [6] is endogenous DR5 receptor on human tumor cells (human, UniProt O14763 56-440). In words: cell-based or functional assay.

B1: truncated variant P2S2 (other)
chain: MKGGSWGGSKKTPPPVPPRTTSKGGSGGSGGSGGSKKTPPPVPPRTTSKGGSGGSGGSGGSDLNMPAYVKFNYMAEREDELSLIKGTKVIVMEKSSDGWWRGSYNGQVGWFPSNYVTEEGDSPLASGAGGSEGGGSEGGTSGATDLNMPAYVKFNYMAEREDELSLIKGTKVIVMEKSSDGWWRGSYNGQVGWFPSNYVTEEGDSPLG
modifications: fluorescent dye label by Alexa Fluor C5 maleimide; labelled residue not stated
With B1, the binding result with CXCR4-mCherry [1] and in the test with DR5-GFP [2] was “no binding (tested: 200 nM)” each time.

B2: recombinant protein CN-P2S2-DN (designed binder)
chain: EVQLMESGGGLVQAGGSLRLSCAASGRTFNNYAMGWFRRAPKGEREFVAAITRSGVRSGVSAIYGDSVKDRFTISRDNAKNTLYLQMNSLKPEDTAVYTCAASAIGSGALRRFEYDYSGQGTQVTVSSGGSGGSGGSGGSASMKGGSWGGSKKTPPPVPPRTTSKGGSGGSGGSGGSKKTPPPVPPRTTSKGGSGGSGGSGGSDLNMPAYVKFNYMAEREDELSLIKGTKVIVMEKSSDGWWRGSYNGQVGWFPSNYVTEEGDSPLASGAGGSEGGGSEGGTSGATDLNMPAYVKFNYMAEREDELSLIKGTKVIVMEKSSDGWWRGSYNGQVGWFPSNYVTEEGDSPLGSMGMGEVQLLESGGGLVQPGGSLRLSCAASGTFDKINNMGWYRQAPGKQRDLVAQITPGGITDYADSVKGRFTISRDNSKNTLYLQMNSLRPEDTAVYYCNAEILKRAYIDVYVNYWGQGTLVTVSS
modifications: fluorescent dye label by Alexa Fluor C5 maleimide (Alexa 647, Alexa 561 or Alexa 546 in the imaging experiments); labelled residue not stated
notes: MBP removed by TEV protease; Unlabelled, endotoxin-free protein was used in the apoptosis assays; also called synthetic ligand CN-P2S2-DN; recombinant ligand CN-P2S2-DN
B2: the binding result with CXCR4-mCherry [3] is “binds”. In addition, the binding result with DR5-GFP [4] is given as “binds”. For the same molecule, the binding result in test [5] is “binds”. In test [6], the “IC50 of apoptosis induction in CXCR4/DR5 COLO-205 cells (Annexin V-FITC/PI flow cytometry)” value was 28.9 nM; the “IC50 of apoptosis induction in CXCR4/DR5 SJSA-1 cells (Annexin V-FITC/PI flow cytometry)” value worked out at 10.1 nM; the “apoptosis ratio in other CXCR4+/DR5+ double-positive tumor cell lines, 200 nM, 5 hr” value was greater than 40%; the “apoptosis ratio, COLO-205 cells, 100 nM, 3 hr” value was 74%. Besides, the “apoptosis ratio, SJSA-1 tumor cells, 100 nM, 3 hr” value in test [6] is 82.5%.
